Publication PMC4634129

Columns and labels:
[1] = biological target: RsPIPS-FL (chimeric construct: Af2299 extramembrane domain fused to the complete RsPIPS sequence abs (Archaeoglobus fulgidus | Renibacterium salmoninarum)); assay: crystal structure; RsPIPS-FL with CDP-DAG, lipidic cubic phase (2% CDP-dioleoylglycerol/98% monoolein), 22 °C, 30% PEG 300, 0.1 M MES pH 6.0, 0.1 M NaCl, 0.1 M MgCl2; space group P 21, two dimers in the asymmetric unit; 3.6 Å
[2] = biological target: RsPIPS-Δ6N (chimeric construct: Af2299 extramembrane domain fused to the N-terminus of PIP synthase (Archaeoglobus fulgidus | Renibacterium salmoninarum)); assay: crystal structure; RsPIPS-Δ6N, apo, lipidic cubic phase (monoolein), 22 °C, 20% PEG 400, 0.1 M MES pH 6.7, 0.2 M lithium sulfate; space group P 21 21 2, one protomer in the asymmetric unit; 2.5 Å

Substance	stoichiometry N [1]	stoichiometry N [2]
RsPIPS-FL (chimeric construct: Af2299 extramembrane domain fused to the complete RsPIPS sequence abs (enzyme)	2	–
RsPIPS-Δ6N (chimeric construct: Af2299 extramembrane domain fused to the N-terminus of PIP synthase (enzyme)	–	2
